In patent US20170281809A1 (Novo Nordisk, published 2017):
Positions count from the first letter of the chain named. Numbers in names are those of the source. Where “and” joins values, the source holds several entries; their conditions need not be identical. Equal entries are not always repeated. Blank lines part the entries; values can stand above or below the binder they belong to.

Experiments:
[1] = target: single-chain NKG2A-CD94-mFc construct (human) (UniProt Q13241); assay: SPR (Biacore T100); sc-NKG2A-CD94-mFc amine-coupled to CM5 chip, antibody 0.157-2.5 nM as analyte
[2] = target: T1, CD94/NKG2A on cells (Ba/F3-CD94/NKG2A; NKL cells) (human, UniProt Q13241 1-179); assay: flow cytometry on Ba/F3-CD94/NKG2A cells, APC-conjugated secondary antibody specific for human antibodies
T1 construct: whole, on cells
Method: The specificity and efficacy of humZ270VL1/VH1, and various humZ270VL1/VH1 variants with back-mutations in the variable light (VL) or variable heavy (VH) regions were tested for binding to CD94/NKG2A in flow-cytometry. For this, Ba/F3-CD94/NKG2A cells were incubated with humZ270-L46F (VL), humZ270-148V (VL), humZ270-L46F/148V (VL), humZ270-V5Q (VH), humZ270-M69L (VH), humZ270-T71V (VH), humZ270-T73K (VH), humZ270-T75S (VH), humZ270-V5Q/M69L/T71V/T73K/T75S (VH), humZ270-M69L/T71V/T73K/T75S (VH) or two different batches of humZ270VL1/VH1 without back-mutations (“DK” and “CHN”). For this purpose, Ba/F3-CD94/NKG2A or -C cells were incubated with various concentrations of the humZ270 variants in tissue-culture medium containing 2% FCS, for at least 30 minutes on ice. The cells were then washed, and incubated in similar medium with APC conjugated secondary antibodies specific for human antibodies, again for at least 30 minutes on ice. After two times washing with ice-cold PBS, the binding of secondary antibodies to cells was visualized using a BD Biosciences FACSarray.

[3] = target: T1, CD94/NKG2A on cells (Ba/F3-CD94/NKG2A; …); assay: flow cytometry on Ba/F3-CD94/NKG2A cells, no HLA-E tetramer pre-incubation, APC-conjugated secondary antibody
Method: To test whether humZ270VL1/VH1 prevents ligand (i.e. HLA-E) binding to CD94/NKG2A, we analyzed whether humZ270 could prevent the binding of HLA-E tetramers to CD94/NKG2A over-expressing Ba/F3 cells (Ba/F3-CD94/NKG2A). For this, Ba/F3-CD94/NKG2A were incubated with 1) various concentrations of humZ270 or 2) first incubated with a saturing concentration of HLA-E tetramers (4.7 μg/ml) and then incubated with various concentrations of humZ270. All incubations were performed in tissue-culture medium containing 2% FCS, on ice. Subsequently, cells were incubated with APC-conjugated secondary antibodies specific for mouse Ab's, and analyzed by flow cytometry using a BD Biosciences FACSarray.

[4] = target: single-chain NKG2A-CD94-mFc construct (human) (UniProt Q13241); assay: SPR (Biacore T100); sc-NKG2A-CD94-mFc on CM5 chip, mutant at 0.75 nM or 1.5 nM
[5] = target: T1, CD94/NKG2A on cells (Ba/F3-CD94/NKG2A; …); assay: flow cytometry on Ba/F3-CD94/NKG2A cells, APC-conjugated secondary antibody
Method: The strength and specificity of humZ270 binding to CD94/NKG2A was tested in flow-cytometry, by analyzing the binding of in HEK293 cells produced wild-type Z270 (recZ270), chimeric Z270 with human IgG4 (chimZ270) or humanized Z270 (humZ270VL1/VH1) to Ba/F3 cells stably over-expressing either CD94/NKG2A or CD94/NKG2C. For this purpose, Ba/F3-CD94/NKG2A and -C cells were incubated with various concentrations of Z270 variants in tissue-culture medium containing 2% FCS, for at least 30 minutes on ice. Subsequently cells were washed, and the cells incubated in similar medium with APC conjugated secondary Ab's, again for at least 30 minutes on ice. After two times washing with ice-cold PBS, the binding of mAb's to cells was visualized using a BD Biosciences FACSarray.

T1 sequence (chain, as listed by the source limits assumed, chain 1 of 2): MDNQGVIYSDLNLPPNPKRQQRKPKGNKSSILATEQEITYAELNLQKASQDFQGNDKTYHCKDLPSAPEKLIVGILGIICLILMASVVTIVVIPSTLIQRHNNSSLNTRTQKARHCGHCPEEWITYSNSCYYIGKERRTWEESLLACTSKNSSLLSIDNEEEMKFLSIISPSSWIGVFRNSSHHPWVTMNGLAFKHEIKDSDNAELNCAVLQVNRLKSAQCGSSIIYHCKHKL
T1 sequence (Q13241 whole entry, chain 2 of 2): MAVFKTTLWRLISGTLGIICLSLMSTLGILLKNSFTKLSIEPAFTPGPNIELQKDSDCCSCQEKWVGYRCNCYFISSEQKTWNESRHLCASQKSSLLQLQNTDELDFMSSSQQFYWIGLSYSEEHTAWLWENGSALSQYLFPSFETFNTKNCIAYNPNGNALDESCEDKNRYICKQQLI

- Kd [1]: 0.0665 nM
- koff [1]: 0.000498 s⁻¹
- kon [1]: 7.49e+06 M⁻¹ s⁻¹
- EC50 (read off the curve) [2]: ~10 ng/mL and ~8 ng/mL
- EC50 (read off the curve) [3]: ~30 ng/mL
B1: humZ270VL1/VH1 (antibody, human IgG4, V domains shown)
VH: QVQLVQSGAEVKKPGASVKVSCKASGYTFTSYWMNWVRQAPGQGLEWMGRIDPYDSETHYAQKLQGRVTMTTDTSTSTAYMELRSLRSDDTAVYYCARGGYDFDVGTLYWFFDVWGQGTTVTVS
VL: DIQMTQSPSSLSASVGDRVTITCRASENIYSYLAWYQQKPGKAPKLLIYNAKTLAEGVPSRFSGSGSGTDFTLTISSLQPEDFATYYCQHHYGTPRTFGGGTKVEIK
notes: No back-mutations; also called hZ270VL1/VH1; huZ270 with a humZ270VH1 heavy chain

- Kd [1]: 0.0498 nM
- koff [1]: 0.000397 s⁻¹
- kon [1]: 7.97e+06 M⁻¹ s⁻¹
B2: chimeric Z270 antibody (antibody, human IgG4, V domains shown)
VH: QVQLQQPGAELVRPGASVKLSCKASGYTFTSYWMNWVKQRPEQGLQWIGRIDPYDSETHYSQKFKDKAILTVDKSSSTAYMRLSSLTSEDSAVYYCARGGYDFDVGTLYWFFDVWGAGTTVTVS
VL: DIQMTQSPASLSASVGETVTITCRASENIYSYLAWYQQKQGKSPQFLVYNAKTLAEGVPSRFSGSGSGTQFSLKINSLQPEDFGSYYCQHHYGTPRTFGGGTKLEIK

- relative binding (binding level in RU divided by that of chimZ270) [4]: 20%
B3: Z270VH alanine mutant R94A (antibody, name in Kabat numbering, V domains shown)
VH: B2 VH with R98A
VL: B2 VL

- EC50 (read off the curve) [5]: ~1 ng/mL
B4: wild-type Z270 produced in HEK293 cells (recZ270) (antibody, mouse IgG1, V domains shown)
VH: B2 VH
VL: B2 VL
notes: also called recombinant Z270
